Drawing on paper PMC314469, “Protein Interaction Networks by Proteome Peptide Scanning” (PLoS Biology, 2004), this text covers normalised SPOT signal, Boehringer light units (BLU); mean over the file's lines of this peptide for 38 molecules.

To fix the notation:
T1: amphyphisin SH3 (AMPH_HUMAN), P49418
T1 chain: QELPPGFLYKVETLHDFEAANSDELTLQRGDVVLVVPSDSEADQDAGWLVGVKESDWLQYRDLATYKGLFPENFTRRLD

For the first assay, the target named is endophilin SH3 (SH3G2_HUMAN), Q99962. In words: SPOT array.
In turn, KKPVPARPPPPTNF [AAH28697 228-242] displayed a normalised SPOT signal, Boehringer light units (BLU); mean over the file's lines of this peptide of 11900.
KISWLSRPRRVSLS [Q13577 12-25] yielded a normalised SPOT signal, Boehringer light units (BLU); mean over the file's lines of this peptide of 492.
Still for that read-out and setting: in the case of AMLSIPRPSKRFWM [Q92508 1232-1245] it was 20.1; in that of KNLDISRPDKKSKK [P46977 431-444], 342; in that of KKPDIPRPIKINLL [Q9UHI5 412-425], 307.
The molecule KITPPRRPHRSSSG [Q9NWB4 151-164] showed a normalised SPOT signal, Boehringer light units (BLU); mean over the file's lines of this peptide of 2730.
KLDTPLRPARQQPT [Q14775 472-485] registered a normalised SPOT signal, Boehringer light units (BLU); mean over the file's lines of this peptide of 1390.
Molecule KGRVLKRPPNSVVT [Q9HC49 341-354] had a normalised SPOT signal, Boehringer light units (BLU); mean over the file's lines of this peptide of 25.2.
Turning to ANLALRRPQGSTSR [P06681 588-601], the normalised SPOT signal, Boehringer light units (BLU); mean over the file's lines of this peptide is 322.
Same read-out and setting: for KGPGPQKPPTEADK [O15021 1933-1947] the value was 82.6; for ANIRLKRPLKMEDP [P23378 97-110], 228; for KIIPPKKPPTKVVP [Q8WZ42 11374-11388], 132.
Still for that read-out and setting: in the case of KFLDPSRPYKSTVS [Q15911 1537-1550] it was 86.2; in that of KDEKPKRPEDESGR [Q9BZI7 330-343], 314.
Still for that read-out and setting: in the case of KLGTLRRPEGPAEP [Q14289 12-25] it was 10.4; in that of KDPGPPRPHRPEAT [Q9Y6J0 1992-2005], 412; in that of KKYLPKRPAKDDPE [Q15642 51-64], 195.
On to KLMEPHRPERQDEK [P49593 287-300], for which the normalised SPOT signal, Boehringer light units (BLU); mean over the file's lines of this peptide worked out at 146.
Still for that read-out and setting: for ANKILNRPKRYNSG [P00740 37-50] the value was 198; for KEMVPAKPPKGLVG [Q99651 220-234], 276; for KGSKPVRPPAPGHG [Q9UH43 133-147], 21200.
Same read-out and setting: for KIGFFKRPLKKKME [P56199 1137-1150] the value was 200.
The same measure, in the same setting: for KGAPFRRPLYTNVP [Q9NQ11 1067-1080] the value was 167; for KIVDPKRPLMPEES [Q9BXK3 581-594], 34; for KKDSFERPRRVGAK [O95391 130-143], 106.
As to KKPPLRRPHSVIGG [Q00537 66-79], the normalised SPOT signal, Boehringer light units (BLU); mean over the file's lines of this peptide is 81.
On the same count and under the same terms, in the case of KLFRPRRPRSSSDA [O94820 221-234] it was 316.
On the same count and under the same terms, in the case of KLEDPRRPDTSFLW [O75923 2014-2027] it was 22.4; in that of KDPGPPRPPAGATQ [Q9H7K4 46-60], 229.
Turning to KFWDLRRPYEPINS [Q16632 639-652], the normalised SPOT signal, Boehringer light units (BLU); mean over the file's lines of this peptide worked out at 61.9.
As to KGTIPKRPWLSATP [O15043 393-406], the normalised SPOT signal, Boehringer light units (BLU); mean over the file's lines of this peptide was 516.
Same read-out and setting: in the case of KEQEPKRPHIKKPL [Q9UJU2 290-303] it was 63.9.
KLKSPKRPASPSSP [Q9H8D2 66-79] had a normalised SPOT signal, Boehringer light units (BLU); mean over the file's lines of this peptide of 803.
Still for that read-out and setting: in the case of KFLDPARPYKSTVS [Q9C0A1 71-84] it was 43.5; in that of KIPKPPKPPKPPRP [Q9Y6N4 503-517], 9990.
The same measure, in the same setting: in the case of KDVLFIRPRKYIHS [Q92613 102-115] it was 86.6; in that of KDLALLRPSKRQPP [Q9H6A9 265-278], 226.
The same measure, in the same setting: for KLMKFSRPKKTRSG [Q9UIG2 1550-1563] the value was 1.7.

Another assay concerns the target T1, amphyphisin SH3 (AMPH_HUMAN), P49418. As to the kind of experiment: SPOT array.
Turning to KKPVPARPPPPTNF [AAH28697 228-242], the normalised SPOT signal, Boehringer light units (BLU); mean over the file's lines of this peptide was 150.
Molecule KISWLSRPRRVSLS [Q13577 12-25] showed a normalised SPOT signal, Boehringer light units (BLU); mean over the file's lines of this peptide of 1200.
Still for that read-out and setting: for AMLSIPRPSKRFWM [Q92508 1232-1245] the value was 258; for KNLDISRPDKKSKK [P46977 431-444], 327.
Molecule KKPDIPRPIKINLL [Q9UHI5 412-425] showed a normalised SPOT signal, Boehringer light units (BLU); mean over the file's lines of this peptide of 159.
Consider KITPPRRPHRSSSG [Q9NWB4 151-164], for which the normalised SPOT signal, Boehringer light units (BLU); mean over the file's lines of this peptide was found to be 6680.
KLDTPLRPARQQPT [Q14775 472-485] showed a normalised SPOT signal, Boehringer light units (BLU); mean over the file's lines of this peptide of 2170.
In turn, KGRVLKRPPNSVVT [Q9HC49 341-354] returned a normalised SPOT signal, Boehringer light units (BLU); mean over the file's lines of this peptide of 33.1.
With ANLALRRPQGSTSR [P06681 588-601], the normalised SPOT signal, Boehringer light units (BLU); mean over the file's lines of this peptide is 12.6.
Take KGPGPQKPPTEADK [O15021 1933-1947]: the normalised SPOT signal, Boehringer light units (BLU); mean over the file's lines of this peptide amounted to 59.9.
On the same count and under the same terms, in the case of ANIRLKRPLKMEDP [P23378 97-110] it was 21.8; in that of KIIPPKKPPTKVVP [Q8WZ42 11374-11388], 39.
For KFLDPSRPYKSTVS [Q15911 1537-1550], the normalised SPOT signal, Boehringer light units (BLU); mean over the file's lines of this peptide is 21.4.
On the same count and under the same terms, for KDEKPKRPEDESGR [Q9BZI7 330-343] the value was 30.5.
On the same count and under the same terms, in the case of KLGTLRRPEGPAEP [Q14289 12-25] it was 24.6; in that of KDPGPPRPHRPEAT [Q9Y6J0 1992-2005], 1150.
On the same count and under the same terms, for KKYLPKRPAKDDPE [Q15642 51-64] the value was 11.1.
As for KLMEPHRPERQDEK [P49593 287-300], the normalised SPOT signal, Boehringer light units (BLU); mean over the file's lines of this peptide was 485.
In the case of ANKILNRPKRYNSG [P00740 37-50], the normalised SPOT signal, Boehringer light units (BLU); mean over the file's lines of this peptide was found to be 476.
In turn, KEMVPAKPPKGLVG [Q99651 220-234] returned a normalised SPOT signal, Boehringer light units (BLU); mean over the file's lines of this peptide of 56.3.
Still for that read-out and setting: in the case of KGSKPVRPPAPGHG [Q9UH43 133-147] it was 64.8; in that of KIGFFKRPLKKKME [P56199 1137-1150], 149.
The molecule KGAPFRRPLYTNVP [Q9NQ11 1067-1080] came in with a normalised SPOT signal, Boehringer light units (BLU); mean over the file's lines of this peptide of 36.3.
In turn, KIVDPKRPLMPEES [Q9BXK3 581-594] displayed a normalised SPOT signal, Boehringer light units (BLU); mean over the file's lines of this peptide of 26.8.
KKDSFERPRRVGAK [O95391 130-143] returned a normalised SPOT signal, Boehringer light units (BLU); mean over the file's lines of this peptide of 2590.
In turn, KKPPLRRPHSVIGG [Q00537 66-79] displayed a normalised SPOT signal, Boehringer light units (BLU); mean over the file's lines of this peptide of 15.8.
KLFRPRRPRSSSDA [O94820 221-234] gave a normalised SPOT signal, Boehringer light units (BLU); mean over the file's lines of this peptide of 46.6.
For the molecule KLEDPRRPDTSFLW [O75923 2014-2027], the normalised SPOT signal, Boehringer light units (BLU); mean over the file's lines of this peptide is 45.6.
Molecule KDPGPPRPPAGATQ [Q9H7K4 46-60] registered a normalised SPOT signal, Boehringer light units (BLU); mean over the file's lines of this peptide of 43.9.
Still for that read-out and setting: in the case of KFWDLRRPYEPINS [Q16632 639-652] it was 44.3; in that of KGTIPKRPWLSATP [O15043 393-406], 35.5; in that of KEQEPKRPHIKKPL [Q9UJU2 290-303], 39.
For KLKSPKRPASPSSP [Q9H8D2 66-79], the normalised SPOT signal, Boehringer light units (BLU); mean over the file's lines of this peptide stood at 32.4.
The same measure, in the same setting: for KFLDPARPYKSTVS [Q9C0A1 71-84] the value was 20.4; for KIPKPPKPPKPPRP [Q9Y6N4 503-517], 1310.
On the same count and under the same terms, for KDVLFIRPRKYIHS [Q92613 102-115] the value was 66.7; for KDLALLRPSKRQPP [Q9H6A9 265-278], 66.4; for KLMKFSRPKKTRSG [Q9UIG2 1550-1563], 0.
